Assay results reported in US11807881B2, “Polypeptide, fusion polypeptide, and antibiotic against gram-negative bacteria comprising same” (priority 2020, dated 2023).

Key:
Type in all cases: cell-based
[1] = tested on: gram negative bacterium (Pseudomonas aeruginosa (PA01; ATCC 15692) and Acinetobacter baumannii (ATCC 19606)); test: NPN uptake assay (outer membrane permeabilization)
Method: In order to evaluate the outer membrane permeabilization activity of the gram negative bacterium of the fusion polypeptide prepared in the Example 3.2, NPN uptake assay was performed. As representative gram negative bacterium, Pseudomonas aeruginosa and Acinetobacter baumannii were used for the test.
Pseudomonas aeruginosa (PA01; ATCC 15692) or Acinetobacter baumannii (ATCC 19606) was cultured by OD600=0.3 and centrifuged at 1,000 g for 10 minutes, and then it was resuspended with a ½ volume of 5 mM HEPES (Hydroxyethyl piperazine Ethane Sulfonic acid) (pH 7.2). 40 μM NPN (1-N-phenylnaphthylamine) solution (40 μM NPN in 5 mM HEPES, pH7.2) 50 μl, the test substance (LNT101, LNT102 or LNT103) 50 μl, and strain suspension solution 100 μl (total 200 μl) were added to a microplate and reacted at 37° C. for 1 hour. Then, fluorescence was measured under the condition of excitation 350 nm and emission 420 nm with a microplate reader (Infinite M200 Pro, TECAN). As a positive control group, Cecropin A (SEQ ID NO: 8), EDTA, or polymyxin B was used, and as a negative control group, 10 μM NPN solution was used. All the experiments were performed in 3 sets. […]

Klebsiella aerogenes = test: CFU reduction test; conditions: K. aerugenes CCARM 16006
Text: (§1) In addition, that the LNT101 endolysin had the antibacterial ability in various gram negative bacterium was confirmed by a CFU reduction test, and the result was shown in Table 2 below.

Enterobacter cloacae = test: CFU reduction test; conditions: E. cloacae CCARM 0252
Text: as §1

B1: LNT103: fusion polypeptide [Cecropin A]-[linker (GSGSGS)]-[endolysin LNT102]; SEQ ID NO: 15 (MAS, His tag) used in the tests (protein)
chain: MASKWKLFKKIEKVGQNIRDGIIKAGPAVAVVGQATQIAKGSGSGSMGTVLKRGDRGSAVEDLQMKLNVAGYNLSADGIFGGDTEKAVRDVQAGAGLVVDGKVGPKTLYAIAKSATVPAKWEAIPFPTANKSRSAAMPTLNAVGAMTGVDSRLLATFASIESAFDYTVKAKTSSATGWFQFLDATWDDMIKAYGSKYGIPKDPTRALRKDPRANALMGAEFIKGNAAVLRPVINREPSDTDLYLAHFLGAGGAKKFLSADQKTLGEVLFPKPAKANPSIFSNKGVPRTLAEIYKLFEDKVSKHRALEHHHHHH
modifications: synthetic_Fusion Polypeptide LNT103 with MAS, His tag, and extra sequence
- outer membrane permeabilization activity (NPN uptake, fold change over control) ([1]; 2 μM, 37° C. 1 hour, compared with LNT101, LNT102, cecropin A 2 μM, polymyxin B 2 μM, EDTA 1 mM): higher outer membrane permeabilization activity against gram negative bacterium than the polypeptides LNT101 and LNT102 at the same concentration
- outer membrane permeabilization activity (NPN uptake, fold change over negative control) ([1]; LNT103 0.29 μM, 0.88 μM, 2.65 μM): increased in a concentration-dependent manner

B2: LNT101: endolysin derived from bacteriophage PBPA90, amino acid sequence SEQ ID NO: 1 (259 aa), purified with 6× His tag (protein)
chain: MGTVLKRGDRGSAVEDLQMKLRVAGYAVSADGIFGGDTEKAVRDFQASKALVVDGKVGPATLAELAKSATVPAKWEAIPFPTANKSRSAAMPTLNAVGAMTGTDSRLLATFASIESAFDYTVKASTSSATGWFQFLDATWDDMIKAHGSKYGIPKDPTRALRKDPRANALMGAEFLKGNAAVLRPVINREPSDTDLYLAHFLGAGGAKKFLSADQKTLGEVLFPKPAKANPSIFSNKGVPRTLAEIYKLFEDKVSKHRA
modifications: 6xHis tag; synthetic_Endolysin LNT101
- CFU reduction (Klebsiella aerogenes): ◯ (‘◯’ means reduction of 0.5 log CFU or more through the CFU reduction assay)
- CFU reduction (Enterobacter cloacae): ◯ (‘◯’ means reduction of 0.5 log CFU or more through the CFU reduction assay)
